The values below are quoted from earlier work in patent publication US20150010606A1, “INTRA-ARTICULAR INJECTION AND IMPLANT ATTACHMENT OF MOLECULE CONSISTING OF LUBRICIN AND EXTRACELLULAR SUPEROXIDE DISMUTASE OR HYALURONIC ACID AND EXTRACELLULAR SUPEROXIDE DISMUTASE” (Arthrex, Inc., priority 2013, published 2015).

One data set relates to osteoarthritis. The following applies: intra-articular injection; human clinical studies; compared to a placebo control.
Data set [1] deals with collagen-induced arthritis. The following applies: mice with collagen-induced arthritis treated with SOD3.

As for “SOD derived from bovine erythrocytes: superoxide dismutase derived from bovine erythrocytes, injected intra-articularly to treat osteoarthritis”, the treatment of osteoarthritis result with osteoarthritis is recorded as “significant success when compared to a placebo control”.

B1: Extracellular superoxide dismutase [Cu—Zn] (protein, UniProt P08294 19-240, looked up)
Extracellular superoxide …: WTGEDSAEPNSDSAEWIRDMYAKVTEIWQEVMQRRDDDGALHAACQVQPSATLDAAQPRVTGVVLFRQLAPRAKLDAFFALEGFPTEPNSSSRAIHVHQFGDLSQGCESTGPHYNPLAVPHPQHPGDFGNFAVRDGSLWRYRAGLAASLAGPHSIVGRAVVVHAGEDDLGRGGNQASVENGNAGRRLACCVVGVCGPGLWERQAREHSERKKRRRESECKAA
As to B1, in data set [1], the “histology of the joint” value is “less destruction of cartilage and bone, less infiltration of mononuclear cells, and less proliferation of synovial cells”; the “joint swelling and deformity” value is “suppression of joint swelling and deformity”.
